# PMC7449674
# Molecular target: human H3.1/H4 tetramer (ITC sample) (human) (UniProt P68431)
# Assay: ITC
substance,measurement,value
mouse POLA1 N1 fragment (ITC sample) (from UniProt P33609 1-110) (domain or fragment),Kd,7.9 µM
